Reference: patent US20260258124A1 (CIMEIO THERAPEUTICS, published 2026)
Numbering of substitutions follows the chain as printed.

B1: Alphubel (antibody, V domains shown)
VH: QVQLVQSGAEVKKPGASVKVSCKASGYTFTSYNMHWVRQAPGQGLEWMGVIYSGNGDTSYNQKFKGRVTMTTDTSTSTAYMELRSLTSDDTAVYYCARERDTRFGNWGQGTLVTVSA
VL: EIVLTQSPSSLSASVGDRVTITCRASESVDIYGNSFMHWYQQKPGKAPKLLIYLASNLESGVPSRFSGSGSGTDFTLTISSLQPEDFATYYCQQNKEDPYTFGQGTKLEIKR
notes: IgG; also called VH1/VL1.13
B2: Nadelhorn (antibody, V domains shown)
VH: B1 VH
VL: B1 VL with N34Y, K96N
notes: IgG; also called VH1/VL1.8
B3: Castor (antibody, V domains shown)
VH: B1 VH
VL: B1 VL with N95E, K96N
notes: IgG; also called VH1/VL1.11
B4: Dent Blanche (antibody, V domains shown)
VH: B1 VH
VL: B1 VL with N34F, K96N
notes: IgG; also called VH1/VL1.6
B5: Grand Combin (antibody, V domains shown)
VH: B1 VH
VL: B1 VL with N95G, K96N
notes: IgG; also called VH1/VL1.9
B6: Aletschhorn (antibody, V domains shown)
VH: B1 VH
VL: B1 VL with K96N, D98P
notes: IgG; also called VH1/VL1.14
B7: Lagginhorn (antibody, V domains shown)
VH: B1 VH with N55S
VL: B1 VL with N34E, K96N, D98E
notes: IgG; also called VH1.2/VL1.17
B8: Jungfrau (antibody, V domains shown)
VH: B1 VH with N55S
VL: EIVLTQSPSSLSASVGDRVTITCRASESVDIYGNSFMHWYQQKPGKAPKLLIYLASNLESGVPSRFSGSGSGTDFTLTISSLQPEDFATYYCQQNNEDPYTFGQGTKLEIK
notes: IgG; also called VH1.2/VL1
B9: Finsteraarhor (antibody, V domains shown)
VH: B1 VH
VL: B1 VL with N95R, K96N
notes: IgG; also called VH1/VL1.10; VH1/LC1.10
B10: Dirruhorn (antibody, V domains shown)
VH: B1 VH
VL: B1 VL with N34Y, D98E
notes: IgG; also called VH1/VL1.18; VH1/VH1.18
B11: Breithorn (antibody, V domains shown)
VH: B1 VH
VL: B1 VL with K96N, D98E
notes: IgG; also called VH1/VL1.15; VH1/LC1.15
B12: Ludwigshöhe (antibody, V domains shown)
VH: B1 VH
VL: B1 VL with N34E, K96N
notes: IgG; also called VH1/VL1.7
B13: Dom (antibody, V domains shown)
VH: B1 VH with K12R, V20L, M70L, T72R, A79V, R84S, T87R, D89E
VL: B8 VL
notes: IgG; also called VH3/VL1; HC3 LC1
B14: HC3 LC3 (antibody, V domains shown)
VH: B1 VH with K12R, V20L, M70L, T72R, A79V, R84S, T87R, D89E
VL: DIVMTQSPSTLSASVGDRVTITCRASESVDIYGSSFMHWYQQKPGQPPKLLIYLASNLESGVPSRFSGSGSGTEFTLTISSLEADDVATYYCQQNNEDPYTFGGGTKLEIK
notes: IgG; also called VH3/VL3
B15: HC2 LC3 (antibody, V domains shown)
VH: B1 VH with Q6E, V20L, G44R, M70I, T72V, T74K, T76A, R84S, T87R, D89E
VL: B14 VL
notes: IgG; also called VH2/VL3
B16: HC5 LC2 (antibody, V domains shown)
VH: EVQLVQSGAEVKKPGESLKISCKGSGYTFTSYNMHWVRQMPGKGLEWMGVIYSGNADTSYNQKFKGQVTISADKSISTAYLQWSSLKASDTAMYYCARERDTRFGNWGQGTLVTVSA
VL: B8 VL with E1D, L4M, S10T, D74E, E85D
notes: IgG; also called VH5/VL2
B17: HC2 LC2 (antibody, V domains shown)
VH: B1 VH with Q6E, V20L, G44R, M70I, T72V, T74K, T76A, R84S, T87R, D89E
VL: B8 VL with E1D, L4M, S10T, D74E, E85D
notes: IgG; also called VH2/VL2
B18: HC3 LC2 (antibody, V domains shown)
VH: B1 VH with K12R, V20L, M70L, T72R, A79V, R84S, T87R, D89E
VL: B8 VL with E1D, L4M, S10T, D74E, E85D
notes: IgG; also called VH3/VL2
B19: HC2 LC5 (antibody, V domains shown)
VH: B1 VH with Q6E, V20L, G44R, M70I, T72V, T74K, T76A, R84S, T87R, D89E
VL: B8 VL with E1D, V3Q, L4M, S35A, N95A, D98E, Q104G
notes: IgG; also called VH2/VL5
B20: HC3 LC5 (antibody, V domains shown)
VH: B1 VH with K12R, V20L, M70L, T72R, A79V, R84S, T87R, D89E
VL: B8 VL with E1D, V3Q, L4M, S35A, N95A, D98E, Q104G
notes: IgG; also called VH3/VL5
B21: HC2 LC1 (antibody, V domains shown)
VH: B1 VH with Q6E, V20L, G44R, M70I, T72V, T74K, T76A, R84S, T87R, D89E
VL: B8 VL
notes: IgG; also called VH2/VL1
B22: HC5 LC5 (antibody, V domains shown)
VH: B16 VH
VL: B8 VL with E1D, V3Q, L4M, S35A, N95A, D98E, Q104G
notes: IgG; also called VH5/VL5
B23: HC5 LC3 (antibody, V domains shown)
VH: B16 VH
VL: B14 VL
notes: IgG; also called VH5/VL3
B24: Signalkuppe (antibody, V domains shown)
VH: B1 VH
VL: B14 VL
notes: IgG; also called VH1/VL3; HC1 LC3
B25: HC1 LC5 (antibody, V domains shown)
VH: B1 VH
VL: B8 VL with E1D, V3Q, L4M, S35A, N95A, D98E, Q104G
notes: IgG; also called VH1/VL5
B26: Liskamm (antibody, V domains shown)
VH: B16 VH
VL: B8 VL
notes: IgG; also called VH5/VL1; HC5 LC1
B27: Zumstein (antibody, V domains shown)
VH: B1 VH
VL: B8 VL with E1D, L4M, S10T, D74E, E85D
notes: IgG; also called VH1/VL2; HC1 LC2

molecular target: T1, human recombinant CD117 (c-Kit) from Sino Biological (Catalog No. 11996-H08H) (human, UniProt P10721 26-524); experiment: BLI Octet, set-up as in Example 2
T1 construct: also called soluble antigen
T1 sequence (P10721 26-524 limits assumed): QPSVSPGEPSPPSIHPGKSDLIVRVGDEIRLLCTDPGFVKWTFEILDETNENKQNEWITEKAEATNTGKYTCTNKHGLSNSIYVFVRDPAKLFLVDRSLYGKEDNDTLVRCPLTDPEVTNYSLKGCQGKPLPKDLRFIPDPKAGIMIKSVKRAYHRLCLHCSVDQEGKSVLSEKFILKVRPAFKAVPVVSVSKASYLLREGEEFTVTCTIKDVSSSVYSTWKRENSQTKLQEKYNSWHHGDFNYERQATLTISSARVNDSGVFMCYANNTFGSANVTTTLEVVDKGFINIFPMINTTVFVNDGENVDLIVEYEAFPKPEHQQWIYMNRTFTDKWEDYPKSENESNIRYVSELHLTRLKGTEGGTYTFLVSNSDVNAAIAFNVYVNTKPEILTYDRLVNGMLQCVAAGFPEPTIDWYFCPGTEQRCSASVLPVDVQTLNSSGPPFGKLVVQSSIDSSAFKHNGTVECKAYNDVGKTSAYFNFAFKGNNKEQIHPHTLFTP
Description: (§1) In the main experiment kinetic assays were performed by first capturing IgG using anti-human Fc biosensors. The mAb capture biosensors were then submerged in wells containing different concentrations of antigen (association stage) followed by a dissociation step in running buffer. To allow for double reference correction, IgG-captured sensors were dipped into wells containing only buffer and blank sensors were also dipped into wells containing the antigen. This referencing provided a means of compensating for both the natural dissociation of the capture IgG and non-specific binding of the antigen to the sensor surface. Steps were performed at 25° C. at a constant shaking of 1000 rpm. New sensors were used for each sample. Dissociation rate constants (Kd) were calculated using the ForteBio Data Analysis software. All consumables used were those recommended by ForteBio.
(§2) All samples were diluted in freshly prepared running buffer. Antibody variants were immobilized onto the surface of a series of biosensors using the capture methods described. Antigen was passed over the surface to generate a binding response. Binding data for the IgG:antigen interactions were collected at 25° C. on the biosensors. A dilution series of the antigen was used in the association step, in order to fit results globally and get the best values for ka, kd, and KD. The response data for the binding of antigen to the surface immobilized IgG were fitted to a 1:1 binding model. HC0 LC0 refers to murine SR-1.

Going from B1 to B2, the Kd falls from 1.4 nM to 0.2 nM (7-fold).

Compared with B3, B4 is 1.8-fold lower in Kd: 2.2 nM for the first, 1.2 nM for the second. The second binds more tightly here.

B5 and B6 are within 1.5-fold of each other in Kd: 1.3 nM for the first, 1.4 nM for the second.

Compared with B7, B8 is 3-fold higher in Kd: 0.44 nM for the first, 1.3 nM for the second. The first binds more tightly here.

First: B9
Second: B10
The Kd of the first is 7.1-fold higher: 4 nM for the first, 0.56 nM for the second. The second binds more tightly here.

Compared with B11, B12 is 2-fold lower in Kd: 0.4 nM for the first, 0.2 nM for the second. The second binds more tightly here.

molecular target: T1, human recombinant CD117 (c-Kit) from …; experiment: BLI Octet, IgG on anti-human Fc sensor, soluble CD117, 1:1 fit
Description: IgG antibodies were immobilized on biosensors using suitable capture surfaces and binding of soluble antigen to immobilized antibodies was monitored by BLI (Octet). The resulting sensorgrams were analyzed using the supplied software (Fortebio). As antigen human recombinant CD117 (c-Kit) from Sino Biological was used (Catalog No. 11996-H08H, Lot #LC14SE0812). As a pre-experiment a series of experiments was performed to optimize assay parameters. The following parameters were selected:
as §1, §2

Going from B13 to B14, the Kd rises from 1.96 nM to 3.28 nM (1.7-fold).

Compared with B15, B16 is 2.2-fold lower in Kd: 8.03 nM for the first, 3.61 nM for the second.

Compared with B17, B18 is 3.5-fold lower in Kd: 10.8 nM for the first, 3.09 nM for the second.

B19 and B20 are within 1.5-fold of each other in Kd: 33.8 nM for the first, 26.2 nM for the second.

First: B21
Second: B22
The Kd of the first is 5.7-fold lower: 5.16 nM for the first, 29.4 nM for the second.

First: B23
Second: B24
The Kd of the first is 3.4-fold higher: 3.67 nM for the first, 1.09 nM for the second. The second binds more tightly here.

Compared with B25, B26 is 4.6-fold lower in Kd: 8.79 nM for the first, 1.92 nM for the second. The second binds more tightly here.

B27 was tested, and the Kd was 1.16 nM.

Going from B13 to B14, the koff rises from 0.000971 s⁻¹ to 0.00216 s⁻¹ (2.2-fold).

First: B15
Second: B16
The koff of the first is 2.7-fold higher: 0.00458 s⁻¹ for the first, 0.0017 s⁻¹ for the second.

Going from B17 to B18, the koff falls from 0.00483 s⁻¹ to 0.00178 s⁻¹ (2.7-fold).

B19 and B20 are within 1.5-fold of each other in koff: 0.0214 s⁻¹ for the first, 0.0187 s⁻¹ for the second.

Compared with B21, B22 is 8.9-fold higher in koff: 0.00206 s⁻¹ for the first, 0.0184 s⁻¹ for the second.

Compared with B23, B24 is 3-fold lower in koff: 0.00216 s⁻¹ for the first, 0.000727 s⁻¹ for the second.

Compared with B25, B26 is 5.7-fold lower in koff: 0.00552 s⁻¹ for the first, 0.000961 s⁻¹ for the second.

B27 was tested, and the koff was 0.000668 s⁻¹.

B13 and B14 are within 1.5-fold of each other in kon: 495000 M⁻¹ s⁻¹ for the first, 658000 M⁻¹ s⁻¹ for the second.

B15 and B16 are within 1.5-fold of each other in kon: 571000 M⁻¹ s⁻¹ for the first, 472000 M⁻¹ s⁻¹ for the second.

B17 and B18 are within 1.5-fold of each other in kon: 449000 M⁻¹ s⁻¹ for the first, 577000 M⁻¹ s⁻¹ for the second.

B19 and B20 are within 1.5-fold of each other in kon: 632000 M⁻¹ s⁻¹ for the first, 715000 M⁻¹ s⁻¹ for the second.

Going from B21 to B22, the kon rises from 399000 M⁻¹ s⁻¹ to 626000 M⁻¹ s⁻¹ (1.6-fold).

B23 and B24 are within 1.5-fold of each other in kon: 589000 M⁻¹ s⁻¹ for the first, 670000 M⁻¹ s⁻¹ for the second.

B25 and B26 are within 1.5-fold of each other in kon: 628000 M⁻¹ s⁻¹ for the first, 500000 M⁻¹ s⁻¹ for the second.

B27 was tested, and the kon was 576000 M⁻¹ s⁻¹.
